# Measured values published in patent publication US20140141093A1 (DOMANTIS, published 2014).
# T1: TNFR1-FC fusion (human, UniProt P19438 30-211, limits assumed)
# T1 construct: not shown: Fc part (captured by goat anti-human IgG)
# T1 sequence (looked up): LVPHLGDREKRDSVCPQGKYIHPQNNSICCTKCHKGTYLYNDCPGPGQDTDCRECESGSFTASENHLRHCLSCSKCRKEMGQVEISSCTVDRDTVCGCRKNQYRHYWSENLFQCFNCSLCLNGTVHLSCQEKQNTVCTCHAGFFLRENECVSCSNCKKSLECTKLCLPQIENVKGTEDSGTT
# B1: DOM1h-131-206 (other)
# VH: EVQLLESGGGLVQPGGSLRLSCAASGFTFAHETMVWVRQAPGKGLEWVSHIPPDGQDPFYADSVKGRFTISRDNSKNTLYLQMNSLRAEDTAVYHCALLPKRGPWFDYWGQGTLVTVSS
# notes: Human VH dAb against TNFR1; also called GSK1995057A
# B2: DOM15-10 Fc fusion (Fc fusion)
# chain: DIQMTQSPSSLSASVGDRVTITCRASQWIGPELSWYQQKPGKAPKLLIYHTSILQSGVPSRFSGSGSGTDFTLTISSLQPEDFATYYCQQYMFQPRTFGQGTKVEIRR
# notes: also called DMS1546; not shown: short peptide linker and human IgG1 Fc
# Experiments:
# [1] = molecular target: T1, TNFR1-FC fusion; assay: human TNFR1 receptor binding assay: inhibition of TNF-alpha (10 ng/ml) binding to bead-captured TNFR1-Fc, four replicates
# [2] = molecular target: T2, human VEGF (human, UniProt P15692-4 27-191, biotinylated in selections and on the SA sensorchip); assay: RBA assay (footnote †); value read as that of the Fc fusion
# T2 construct: also called hVEGF; VEGFA
# T2 sequence (P15692 other isoform, or with tags, fused parts or gaps limits assumed): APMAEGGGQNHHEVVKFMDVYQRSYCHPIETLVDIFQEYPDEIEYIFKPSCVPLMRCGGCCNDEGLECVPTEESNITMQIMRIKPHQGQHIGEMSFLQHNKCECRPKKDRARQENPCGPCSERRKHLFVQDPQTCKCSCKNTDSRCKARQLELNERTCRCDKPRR
Binder,IC50 (read off the curve) [1] [nM],"Activity (nM), RBA assay [2] [nM]"
B1,~0.08,
B2,,0.913
